Like-named read-outs stand apart in the source and are kept apart here. Each block holds one molecule with its values, some of them ahead of it.
Tests used:
[1] = target: RAGE (Bos taurus) (UniProt Q28173); settings: cited from earlier work
[2] = target: RAGE (Bos taurus) (UniProt Q28173); settings: cited from earlier work; remark: listed apart in the source
[3] = target: RAGE C1 domain (Homo sapiens) (UniProt Q15109); settings: cited from earlier work
[4] = target: sRAGE-Fc sRAGE (Homo sapiens) (UniProt Q15109); settings: cited from earlier work
sRAGE-Fc sRAGE (Homo sapiens), sequence (Q15109 23-342): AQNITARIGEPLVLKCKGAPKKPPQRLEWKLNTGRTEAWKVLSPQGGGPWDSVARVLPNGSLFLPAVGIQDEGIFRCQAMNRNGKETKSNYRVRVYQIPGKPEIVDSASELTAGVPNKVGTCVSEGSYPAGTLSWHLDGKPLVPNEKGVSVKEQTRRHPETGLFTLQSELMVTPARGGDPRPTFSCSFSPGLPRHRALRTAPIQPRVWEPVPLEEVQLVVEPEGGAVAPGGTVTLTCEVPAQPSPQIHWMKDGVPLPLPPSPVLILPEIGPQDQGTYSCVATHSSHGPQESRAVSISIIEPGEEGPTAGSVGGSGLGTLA

[5] = target: RAGE V-domain (Mus musculus) (UniProt Q62151); settings: cited from earlier work
RAGE V-domain (Mus musculus), sequence (Q62151 23-109): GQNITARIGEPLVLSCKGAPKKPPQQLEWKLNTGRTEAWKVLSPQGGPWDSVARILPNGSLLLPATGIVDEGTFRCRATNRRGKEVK

[6] = target: His-tagged human sRAGE expressed in U373 cells (human, UniProt Q15109 23-342, N-glycans); experiment: ELISA
His-tagged human sRAGE expressed in U373 cells, sequence (Q15109 23-342): as the sequence (Q15109 23-342) above

[7] = target: His-tagged human sRAGE expressed in H4 cells (human, UniProt Q15109 23-342, N-glycans); experiment: ELISA
His-tagged human sRAGE expressed in H4 cells, sequence (Q15109 23-342): as above

[8] = target: His-tagged human sRAGE expressed in HL60 cells (human, UniProt Q15109 23-342, N-glycans); experiment: ELISA
His-tagged human sRAGE expressed in HL60 cells, sequence (Q15109 23-342): as above

[9] = target: His-tagged human sRAGE expressed in HeLa cells (human, UniProt Q15109 23-342, N-glycans at N25 and N81); experiment: ELISA
His-tagged human sRAGE expressed in HeLa cells, sequence (Q15109 23-342): as above

[10] = target: His-tagged human sRAGE expressed in HEK293 cells (human, UniProt Q15109 23-342, N-glycans); experiment: ELISA
His-tagged human sRAGE expressed in HEK293 cells, sequence (Q15109 23-342): as above

[11] = target: T1, total bovine lung RAGE (bovine, UniProt Q28173 23-416, N-glycans (native glycosylation)); experiment: ELISA
T1 sequence (looked up): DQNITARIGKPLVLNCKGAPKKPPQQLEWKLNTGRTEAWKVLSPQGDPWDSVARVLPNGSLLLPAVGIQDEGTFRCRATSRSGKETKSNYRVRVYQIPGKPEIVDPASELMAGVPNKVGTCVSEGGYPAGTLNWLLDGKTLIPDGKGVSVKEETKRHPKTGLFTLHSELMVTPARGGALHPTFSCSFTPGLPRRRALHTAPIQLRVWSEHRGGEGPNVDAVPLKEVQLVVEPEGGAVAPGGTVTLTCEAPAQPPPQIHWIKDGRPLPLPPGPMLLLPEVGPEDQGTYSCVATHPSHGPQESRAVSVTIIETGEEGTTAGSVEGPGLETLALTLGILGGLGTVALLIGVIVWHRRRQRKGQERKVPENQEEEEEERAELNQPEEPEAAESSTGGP

[12] = target: T2, mAbGB3.1-enriched bovine RAGE (bovine, UniProt Q28173 23-416, N-glycans enriched for carboxylated glycans); experiment: ELISA
T2 sequence (looked up): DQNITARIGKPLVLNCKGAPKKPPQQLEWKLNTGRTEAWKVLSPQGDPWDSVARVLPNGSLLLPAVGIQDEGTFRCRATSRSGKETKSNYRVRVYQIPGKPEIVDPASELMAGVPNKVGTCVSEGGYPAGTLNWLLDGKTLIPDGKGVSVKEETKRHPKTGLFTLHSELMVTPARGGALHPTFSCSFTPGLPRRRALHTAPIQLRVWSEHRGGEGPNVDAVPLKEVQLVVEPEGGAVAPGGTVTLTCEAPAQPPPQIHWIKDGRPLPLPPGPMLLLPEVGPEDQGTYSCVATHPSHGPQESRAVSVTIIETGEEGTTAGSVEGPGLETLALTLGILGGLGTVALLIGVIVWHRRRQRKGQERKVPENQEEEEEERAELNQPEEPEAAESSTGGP

RAGE C1 domain (Homo sapiens), sequence (Q15109 124-221): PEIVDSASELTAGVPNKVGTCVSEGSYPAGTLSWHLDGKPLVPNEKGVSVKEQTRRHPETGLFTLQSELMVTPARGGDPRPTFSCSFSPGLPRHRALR

Molecule: S100A8/A9 (from UniProt P05109)
Kd [1]: 7.62 nM | Kd [2]: 34.4 nM

Molecule: S100A12 (from UniProt P80511)
Kd [3]: 90 nM | Kd [4]: 80 nM | Kd [5]: 90 nM

binding result [6]: binds | binding result [7]: binds | binding result [8]: binds | binding result [9]: binds | binding result [10]: binds | Kd [11]: 51.8 ± 20.6 nM | Kd [12]: 133 ± 46.4 nM
B1: recombinant human S100A12 (ligand, UniProt P80511 1-92, looked up)
chain: MTKLEEHLEGIVNIFHQYSVRKGHFDTLSKGELKQLLTKELANTIKNIKDKAVIDEIFQGLDANQDEQVDFQEFISLVAIALKAAHYHTHKE

Kd [11]: 53.1 ± 7.8 nM | Kd [12]: 30.9 ± 3.6 nM
B2: purified human S100A11 (ligand, UniProt P31949 1-105, looked up)
chain: MAKISSPTETERCIESLIAVFQKYAGKDGYNYTLSKTEFLSFMNTELAAFTKNQKDPGVLDRMMKKLDTNSDGQLDFSEFLNLIGGLAMACHDSFLKAVPSQKRT

Reference: article PMC2879712 (Journal of cellular biochemistry, 2010)
